Results as given in patent publication US9005962B2, “Regionalised endoderm cells and uses thereof” (The University Court of the University of Edinburgh, priority 2007, dated 2015).

Legend:
Hex^RS ES cells [1] = assay: ADE (H+C+) induction, two-step suspension (embryoid body) differentiation with serum day 0-2, flow cytometry for RS and Cxcr4; type: cell-based, mouse
Description: ADE was induced under serum-containing conditions using a 2-step protocol. ES cells were seeded onto non-coated 10 cm petri dishes (sterilin) at a density of 5×10^3 cells/ml in Glasgow minimum essential medium (G-MEM; GIBCO-BRL) supplemented with 10% fetal calf serum (FCS), 0.1 mM nonessential amino acids (GIBCO-BRL), 1 mM sodium pyruvate, 2 mM glutamine and 0.1 mM 2-mercaptoethanol (2ME). Following 2 days of culture the resulting embryoid bodies (EBs) were harvested by centrifugation at 500 rpm for 1 min and replated on 10 cm non-coated petri dishes at the same density in N2B27 culture medium (StemCellSciences) supplemented with 20 ng/ml activin A (R&D). The media was replaced 2 days later and then every 3 days for the duration of the experiment. For some experiments 20 ng/ml EGF, 10 ng/ml Bmp4, 20 ng/ml activin A (R&D), 1×10^−5M all-trans retinoic acid (Sigma) and 3 μM CHIR99021 (a gift from StemCellSciences) were added to the culture at the indicated timepoints.
(§1) FITC-conjugated rat anti-CD184 (CXCR4), FITC-conjugated rat anti-CD31 and FITC conjugated rat anti-CD45 were purchased from BD Pharmingen. EBs generated under various different differentiation conditions were dissociated by treatment with cell dissociation buffer (PBS based) (GIBCO-BRL). Cells were washed in PBS supplemented with 10% FCS (FB) and resuspended at a maximum density of 5×10^6 cells/ml. For surface staining 200 μl of cells were plated in a V shape 96 well polystyrene plate (Sterilin) in PBS supplemented with 1% serum of the species in which the antibody was manufactured. The FITC-conjugated antibody or a FITC-conjugated isotype control was added at a 1:100 dilution. Cells were incubated in the dark for 20 mins, washed 3 times with FB and resuspended in FB supplemented with Topro3-iodide (Invitrogen) to exclude dead cell from the analysis. Cells were analysed using a FACS Calibur (BD Biosciences) or sorted using a MoFlo MLS flow cytometer (DakoCytomation).
Mouse ES cells were cultured according to Li et al., (1995). ADE was induced under serum-containing conditions using a 2-step protocol. ES cells were seeded onto non-coated 10 cm petri dishes (Sterilin) at a density of 5×10^3 cells/ml in GMEM supplemented as described in Li et al., (1995) except in the absence of LIF. EBs were harvested after two days by centrifugation and replated in N2B27 medium (StemCellSciences) supplemented with 20 ng/ml activin A (R&D) and 20 ng/ml EGF (R&D). This media was replaced again two days later. 10 ng/ml BMP4, 20 ng/ml activin A (R&D) and 1×10^−5M all-trans retinoic acid (Sigma) were added where indicated.
(§2) FITC-conjugated rat anti-CD184 (Cxcr4), FITC-conjugated rat anti-CD31 and FITC conjugated rat anti-CD45 were purchased from BD Pharmingen. Cells were stained with Topro3-iodide (Invitrogen) to exclude dead cells from the analysis. Cells were analysed using a FACS Calibur (BD Biosciences) or sorted using a MoFlo MLS flow cytometer (DakoCytomation).

Hex^RS ES cells [2] = assay: ADE (H+C+) induction, serum-free suspension (aggregation) culture, flow cytometry; type: cell-based; conditions: added during the first two days; serum-free, aggregation and monolayer (Table 7)
Description: For ADE induction under serum-free conditions in suspension culture, ES cells were seeded onto non-coated 10 cm Petri dishes at 5×10^3 cells/ml in N2B27 culture medium supplemented with 10 ng/ml Bmp4 and 20 ng/ml activin A. Following 2 days of culture the resulting EBs were harvested as above and replated on non-coated Petri dishes at the same density in SF03 culture medium (ref Tada 2005) supplemented with 20 ng/ml activin A and 20 ng/ml EGF. The media was replaced 2 days later and then every 3 days for the duration of the experiment. For some experiments 10 ng/ml Fgf4 (R&D), 10 ng/ml Bmp4, 20 ng/ml Activin A, 1×10^−5M all-trans retinoic acid, 100 ng/ml PD173074 (Sigma), 20 ng/ml EGF and 3 μM CHIR99021 were added to the culture at the indicated timepoints.
as §1, with “(DakoCytomation). […]” for “(DakoCytomation).”
FITC-conjugated rat anti-CD184 (Cxcr4), FITC-conjugated rat anti-CD31 and FITC conjugated rat anti-CD45 were purchased from BD Pharmingen. […] Cells were analysed using a FACS Calibur (BD Biosciences) or sorted using a MoFlo MLS flow cytometer (DakoCytomation).

Hex^RS ES cells [3] = assay: ADE (H+C+) induction, serum-free adherent monolayer culture, flow cytometry, RT-PCR and immunostaining; type: cell-based; conditions: monolayer culture
Description: For ADE induction under serum-free conditions in adherent monolayer culture, ES cells were seeded onto gelatin coated 3 cm 6 well dishes (Iwaki) at a density of 1×10^4 cells/ml in N2B27 medium (StemCellSciences) supplemented with 10 ng/ml Bmp4, 20 ng/ml activin A and 10 ng/ml Fgf4. Following 2 days of culture the media was replaced with SF03 culture medium (Tada 2005) supplemented with 20 ng/ml activin A, 10 ng/ml Fgf4 and 20 ng/ml EGF. The media was replaced 2 days later and then every 3 days for the duration of the experiment. For some experiments 1×10^−5M all-trans retinoic acid, 100 ng/ml PD173074 and 3 μM CHIR99021 were added to the culture at the indicated timepoints.
as §1
Total RNA was prepared from a minimum of 1×10^4 cells from sorted cell fractions, EBs, monolayer differentiated cells or ES cells using Trizol reagent (Invitrogen). 1 μg of RNA was used as a template for cDNA synthesis using Superscript III (Invitrogen). Real-time RT-PCR was performed using a LightCycler 480 (Roche) and LightCycler 480 SYBR Green 1 Master (Roche). The following cycling conditions were used: denaturation: 95° C. 5 sec, amplification: 95° C. 5 sec, 58° C. 10 sec, 72° C. 20 sec (45 cycles), 81° C. 1 sec, melt: 95° C. 1 sec, 65° C. 10 sec, 95° C. −ramp 5 C per sec continuous, cool: […] 10 sec. Standard curves were generated from plasmid. Samples were normalized to β-actin or TATA-box binding protein (TBP) expression levels.
Sorted cells were seeded onto gelatin coated 24 well dishes (Iwaki). Adherence of cells to the substrate was enhanced by centrifugation at 1200 rpm for 3 mins. Sorted cells, monolayer differentiated cells and ES cells were washed in PBS, fixed in 4% paraformaldehyde for 10 mins and permeabilised by washing in PBS supplemented with 0.1% Triton X (PBST). Cells were treated with a blocking reagent (3% serum of same species as secondary antibody, 1% BSA in PBST) for 15 min before incubation with the primary antibody at 4° C. overnight. The cells were washed with PBST and incubated with the appropriate fluorescence-tagged secondary antibody for 2 hr at room temperature. The cells were washed with PBST and DAPI added during the final wash. The following primary antibodies were used, all are anti-mouse: anti-Oct3/4, anti-HNF-3β (Foxa2), anti-HNF-4α (Santa Cruz), anti-Cer11 (R&D), anti-E-cadherin (Takara Bio Inc) anti-alpha fetoprotein (NeoMarkers), anti-albumin (Bethyl laboratories inc). Anti-Pdx1 was a gift from P. Serup. […]
as §2

B1: Bmp4: bone morphogenetic protein, 10 ng/ml (protein, UniProt P12644 293-408, looked up)
Bone morphogenetic protein 4: SPKHHSQRARKKNKNCRRHSLYVDFSDVGWNDWIVAPPGYQAFYCHGDCPFPLADHLNSTNHAIVQTLVNSVNSSIPKACCVPTELSAISMLYLDEYDKVVLKNYQEMVVEGCGCR
- induction of the RS positive population (Hex^RS ES cells [1]; added either at day 0 or day 3 (Table 2)): completely blocked
- CXCR4 induction (Hex^RS ES cells [1]; added either at day 0 or day 3, data not shown): without effecting
- total number of surviving cells at the end of the 7 day differentiation (Hex^RS ES cells [2]): significantly increased
- H+C+ percentage (Hex^RS ES cells [3]): increased
